According to patent publication US20260337282 (published 2026):

T1: mouse CCR8 (mouse)
T1 chain: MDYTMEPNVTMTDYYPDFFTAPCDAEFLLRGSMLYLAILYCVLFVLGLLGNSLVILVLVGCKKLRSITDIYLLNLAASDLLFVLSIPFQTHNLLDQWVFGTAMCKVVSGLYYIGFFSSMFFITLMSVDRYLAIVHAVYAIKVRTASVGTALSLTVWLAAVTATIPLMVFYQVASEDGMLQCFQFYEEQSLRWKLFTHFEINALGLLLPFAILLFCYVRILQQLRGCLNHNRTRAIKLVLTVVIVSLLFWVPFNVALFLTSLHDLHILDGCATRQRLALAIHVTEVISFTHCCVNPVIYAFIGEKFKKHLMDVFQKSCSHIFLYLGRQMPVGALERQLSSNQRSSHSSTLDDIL

B1: 11F5-SG-11F5-AG (antibody, V domains shown)
VH: EVQLVESGGGVVQPGRSLRLSCAASGFTFSSYVVHWVRQAPGKGLEWVAVISYSGDNKFYADSVKGRFTISRDNSKNTLYLQMNSLRTEDTAVYYCARGRNYYYYYGLDVWGQGTTVTVSS
VL: DIVMTQTPLSLSVTPGQPASISCKSSQSLLYSAGKTYLYWYLQKAGQPPQLLIYEVSNRFSGVPDRFSGSGSGTDFTLKISRVEAEDVGVFYCMQSLKVPPTFGQGTKVDIK
B2: 11F5-DA-11F5-SG (antibody, V domains shown)
VH: EVQLVESGGGVVQPGRSLRLSCAASGFTFSSYVVHWVRQAPGKGLEWVAVISYDADNKFYADSVKGRFTISRDNSKNTLYLQMNSLRTEDTAVYYCARGRNYYYYYGLDVWGQGTTVTVSS
VL: DIVMTQTPLSLSVTPGQPASISCKSSQSLLYSSGKTYLYWYLQKAGQPPQLLIYEVSNRFSGVPDRFSGSGSGTDFTLKISRVEAEDVGVFYCMQSLKVPPTFGQGTKVDIK
B3: 11F5-DA-11F5-AG (antibody, V domains shown)
VH: EVQLVESGGGVVQPGRSLRLSCAASGFTFSSYVVHWVRQAPGKGLEWVAVISYDADNKFYADSVKGRFTISRDNSKNTLYLQMNSLRTEDTAVYYCARGRNYYYYYGLDVWGQGTTVTVSS
VL: DIVMTQTPLSLSVTPGQPASISCKSSQSLLYSAGKTYLYWYLQKAGQPPQLLIYEVSNRFSGVPDRFSGSGSGTDFTLKISRVEAEDVGVFYCMQSLKVPPTFGQGTKVDIK
B4: 11F8-SG-11F8-DA (antibody, V domains shown)
VH: QVQLVESGGGVVQPGRSLRLSCAASGFTFSTYVMHWVRQAPGKGLEWVAVISYSGNNKYYADSVKGRFIISRDNSKNTLFLQMNSLRGEDTAVYYCARGRSYVNYYGLDVWGQGTTVTVSS
VL: DIVMTQTPLSLSVTPGQPASISCKSSQSLLYSDAKTYLYWYLQKPGQPPHLLIYEVSNRFSGVPKRFSGSGSGTDFTLKISRVEAEDVGVYYCMQSVKIPLTFGGGTKVEIK
B5: 11B12-AG-11B12-SG (antibody, V domains shown)
VH: QVQLVESGGGVVQPGRSLRLSCAASGFSFSSYVMHWVRQAPGKGLEWVAVISYAGSDKYYADSVKGRFTISRDNSKNTLFLQMNSLRPEDTAVYYCARGRGYRYGQSYYYGMDVWGQGTTVTVSS
VL: DIVMTQTPLSLSVTPGQPASISCKSSQSLLYSSGKTYLYWYLQKPGQPPQILIFEVSNRFSGVPDRFSGSGSGTDFTLKISRVEAEDVGVYYCMQSIKLPLTFGGGTKVEIK
B6: 11F8-11B12 (antibody, V domains shown)
VH: QVQLVESGGGVVQPGRSLRLSCAASGFTFSTYVMHWVRQAPGKGLEWVAVISYDGNNKYYADSVKGRFIISRDNSKNTLFLQMNSLRGEDTAVYYCARGRSYVNYYGLDVWGQGTTVTVSS
VL: DIVMTQTPLSLSVTPGQPASISCKSSQSLLYSDGKTYLYWYLQKPGQPPQILIFEVSNRFSGVPDRFSGSGSGTDFTLKISRVEAEDVGVYYCMQSIKLPLTFGGGTKVEIK
B7: 11F8-DA-11F8-AG (antibody, V domains shown)
VH: QVQLVESGGGVVQPGRSLRLSCAASGFTFSTYVMHWVRQAPGKGLEWVAVISYDANNKYYADSVKGRFIISRDNSKNTLFLQMNSLRGEDTAVYYCARGRSYVNYYGLDVWGQGTTVTVSS
VL: DIVMTQTPLSLSVTPGQPASISCKSSQSLLYSAGKTYLYWYLQKPGQPPHLLIYEVSNRFSGVPKRFSGSGSGTDFTLKISRVEAEDVGVYYCMQSVKIPLTFGGGTKVEIK
B8: 11F8-DA-11F8-SG (antibody, V domains shown)
VH: QVQLVESGGGVVQPGRSLRLSCAASGFTFSTYVMHWVRQAPGKGLEWVAVISYDANNKYYADSVKGRFIISRDNSKNTLFLQMNSLRGEDTAVYYCARGRSYVNYYGLDVWGQGTTVTVSS
VL: DIVMTQTPLSLSVTPGQPASISCKSSQSLLYSSGKTYLYWYLQKPGQPPHLLIYEVSNRFSGVPKRFSGSGSGTDFTLKISRVEAEDVGVYYCMQSVKIPLTFGGGTKVEIK
B9: 11F5-SG-11F5-DA (antibody, V domains shown)
VH: EVQLVESGGGVVQPGRSLRLSCAASGFTFSSYVVHWVRQAPGKGLEWVAVISYSGDNKFYADSVKGRFTISRDNSKNTLYLQMNSLRTEDTAVYYCARGRNYYYYYGLDVWGQGTTVTVSS
VL: DIVMTQTPLSLSVTPGQPASISCKSSQSLLYSDAKTYLYWYLQKAGQPPQLLIYEVSNRFSGVPDRFSGSGSGTDFTLKISRVEAEDVGVFYCMQSLKVPPTFGQGTKVDIK
B10: 11F8-AG-11F8-SG (antibody, V domains shown)
VH: QVQLVESGGGVVQPGRSLRLSCAASGFTFSTYVMHWVRQAPGKGLEWVAVISYAGNNKYYADSVKGRFIISRDNSKNTLFLQMNSLRGEDTAVYYCARGRSYVNYYGLDVWGQGTTVTVSS
VL: DIVMTQTPLSLSVTPGQPASISCKSSQSLLYSSGKTYLYWYLQKPGQPPHLLIYEVSNRFSGVPKRFSGSGSGTDFTLKISRVEAEDVGVYYCMQSVKIPLTFGGGTKVEIK
B11: 11B12-SG-11B12-SG (antibody, V domains shown)
VH: QVQLVESGGGVVQPGRSLRLSCAASGFSFSSYVMHWVRQAPGKGLEWVAVISYSGSDKYYADSVKGRFTISRDNSKNTLFLQMNSLRPEDTAVYYCARGRGYRYGQSYYYGMDVWGQGTTVTVSS
VL: DIVMTQTPLSLSVTPGQPASISCKSSQSLLYSSGKTYLYWYLQKPGQPPQILIFEVSNRFSGVPDRFSGSGSGTDFTLKISRVEAEDVGVYYCMQSIKLPLTFGGGTKVEIK
B12: 11F8-AG-11F8-DA (antibody, V domains shown)
VH: QVQLVESGGGVVQPGRSLRLSCAASGFTFSTYVMHWVRQAPGKGLEWVAVISYAGNNKYYADSVKGRFIISRDNSKNTLFLQMNSLRGEDTAVYYCARGRSYVNYYGLDVWGQGTTVTVSS
VL: DIVMTQTPLSLSVTPGQPASISCKSSQSLLYSDAKTYLYWYLQKPGQPPHLLIYEVSNRFSGVPKRFSGSGSGTDFTLKISRVEAEDVGVYYCMQSVKIPLTFGGGTKVEIK
B13: 11F5-DA-11F5-DA (antibody, V domains shown)
VH: EVQLVESGGGVVQPGRSLRLSCAASGFTFSSYVVHWVRQAPGKGLEWVAVISYDADNKFYADSVKGRFTISRDNSKNTLYLQMNSLRTEDTAVYYCARGRNYYYYYGLDVWGQGTTVTVSS
VL: DIVMTQTPLSLSVTPGQPASISCKSSQSLLYSDAKTYLYWYLQKAGQPPQLLIYEVSNRFSGVPDRFSGSGSGTDFTLKISRVEAEDVGVFYCMQSLKVPPTFGQGTKVDIK
B14: 11B12-SG-11B12-DA (antibody, V domains shown)
VH: QVQLVESGGGVVQPGRSLRLSCAASGFSFSSYVMHWVRQAPGKGLEWVAVISYSGSDKYYADSVKGRFTISRDNSKNTLFLQMNSLRPEDTAVYYCARGRGYRYGQSYYYGMDVWGQGTTVTVSS
VL: DIVMTQTPLSLSVTPGQPASISCKSSQSLLYSDAKTYLYWYLQKPGQPPQILIFEVSNRFSGVPDRFSGSGSGTDFTLKISRVEAEDVGVYYCMQSIKLPLTFGGGTKVEIK
B15: 11F8-11F5 (antibody, V domains shown)
VH: QVQLVESGGGVVQPGRSLRLSCAASGFTFSTYVMHWVRQAPGKGLEWVAVISYDGNNKYYADSVKGRFIISRDNSKNTLFLQMNSLRGEDTAVYYCARGRSYVNYYGLDVWGQGTTVTVSS
VL: DIVMTQTPLSLSVTPGQPASISCKSSQSLLYSDGKTYLYWYLQKAGQPPQLLIYEVSNRFSGVPDRFSGSGSGTDFTLKISRVEAEDVGVFYCMQSLKVPPTFGQGTKVDIK

What was measured:
mouse CCR8 = target: T1, mouse CCR8; assay: FACS
human CCR8 = human CCR8 (human); assay: FACS
Chain of human CCR8 (human) (chain, as listed by the source): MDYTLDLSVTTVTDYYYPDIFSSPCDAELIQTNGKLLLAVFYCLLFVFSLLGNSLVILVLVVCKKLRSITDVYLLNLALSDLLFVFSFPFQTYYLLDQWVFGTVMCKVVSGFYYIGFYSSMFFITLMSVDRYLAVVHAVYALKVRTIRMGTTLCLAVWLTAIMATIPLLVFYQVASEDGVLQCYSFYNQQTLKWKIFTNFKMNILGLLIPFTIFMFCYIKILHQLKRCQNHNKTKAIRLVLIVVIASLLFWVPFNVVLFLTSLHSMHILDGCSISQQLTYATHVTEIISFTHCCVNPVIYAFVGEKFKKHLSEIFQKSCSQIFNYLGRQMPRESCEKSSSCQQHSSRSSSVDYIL

Row | Binder | EC50 (mouse CCR8) | EC50 (human CCR8)
1 | B1 | 0.092 µg/mL | 0.069 µg/mL
2 | B2 | – | 0.124 µg/mL
3 | B3 | 0.463 µg/mL | –
4 | B4 | 0.173 µg/mL | 0.049 µg/mL
5 | B5 | 0.038 µg/mL | 0.043 µg/mL
6 | B6 | 0.155 µg/mL | 0.075 µg/mL
7 | B7 | – | 0.076 µg/mL
8 | B8 | – | 0.154 µg/mL
9 | B9 | 0.138 µg/mL | 0.15 µg/mL
10 | B10 | 0.149 µg/mL | –
11 | B11 | 0.041 µg/mL | 0.048 µg/mL
12 | B12 | 0.171 µg/mL | 0.12 µg/mL
13 | B13 | 0.253 µg/mL | 0.392 µg/mL
14 | B14 | 0.059 µg/mL | 0.064 µg/mL
15 | B15 | 0.116 µg/mL | 0.137 µg/mL
